Test results: paper PMC7815066 (Chem, 2021)

Columns and labels:
[1] = target: E. coli bo3 oxidase (E. coli); test: SEC-MALS
[2] = target: E. coli bo3 oxidase (E. coli); test: mass photometry
[3] = target: T1, Streptomyces lividans potassium channel KcsA (Streptomyces lividans), P0A334; test: mass photometry; conditions: remark: other sources report otherwise
T1 chain: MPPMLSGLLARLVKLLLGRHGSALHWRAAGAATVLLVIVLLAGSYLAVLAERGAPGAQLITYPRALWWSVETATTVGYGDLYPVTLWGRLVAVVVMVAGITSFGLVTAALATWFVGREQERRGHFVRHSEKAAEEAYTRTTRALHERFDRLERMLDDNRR

[4] = target: T1, Streptomyces lividans potassium channel …; test: mass photometry; conditions: remark: other sources report otherwise
mass photometry = target: the molecule itself; test: mass photometry

## E. coli bo3 oxidase (complex)
[1]
  relative abundance of dimers: 28%
  relative abundance of monomers: 72%
  stoichiometry N: 2
[2]
  relative abundance of dimers: 20%
  stoichiometry N: 2

B1: Streptomyces lividans potassium channel KcsA, P0A334 1-160 (natural protein)
chain: T1 chain
[3]
  stoichiometry N: 4
[4]
  stoichiometry N: 4

B2: E. coli outer membrane protein F (natural protein)
chain: AEIYNKDGNKVDLYGKAVGLHYFSKGNGENSYGGNGDMTYARLGFKGETQINSDLTGYGQWEYNFQGNNSEGADAQTGNKTRLAFAGLKYADVGSFDYGRNYGVVYDALGYTDMLPEFGGDTAYSDDFFVGRVGGVATYRNSNFFGLVDGLNFAVQYLGKNERDTARRSNGDGVGGSISYEYEGFGIVGAYGAADRTNLQEAQPLGNGKKAEQWATGLKYDANNIYLAANYGETRNATPITNKFTNTSGFANKTQDVLLVAQYQFDFGLRPSIAYTKSKAKDVEGIGDVDLVNYFEVGATYYFNKNMSTYVDYIINQIDSDNKLGVGSDDTVAVGIVYQF
Mass photometry
  stoichiometry N: 3
